Several values for one entry are separate records, joined by “and”; a condition that tells them apart may be missing. Equal entries are not always repeated.

Two substances from publication PMC6053953 can be followed below.

Experiment [1] has as its target His6-tagged human peroxiredoxin 3 (human). In words: native MS; 20 uM protein (monomer) in 100 mM ammonium acetate, pH 8.0; trap collision energy 20 V; step: chains to the dodecameric ring.
For experiment [2] the target is unchanged. In words: AUC; sedimentation velocity, 20 C, 20 uM protein (monomer) in 100 mM ammonium acetate, pH 4.0; c(s) distribution; step: ring-to-ring stacking.
Experiment [3] has the same target. In words: native MS; protein buffer exchanged from 100 mM ammonium acetate, pH 4.0, back into pH 8.0 before injection; step: stacks of rings back to single rings.
For experiment [4] the target is unchanged. In words: native MS; 20 uM protein (monomer) buffer exchanged from pH 8.0 into 100 mM ammonium acetate, pH 4.0; spectra from 60 seconds (0 hours) to 3 hours after exchange; step: ring-to-ring stacking.
The target is the same in experiment [5]. In words: SEC-SLS; Superdex 200 Increase 10/300 GL with refractive index and right-angle light scattering, 28 C; 20 uM protein in 100 mM ammonium acetate, pH 8.0; step: chains to the dodecameric ring.
In experiment [6] the target is cleaved human peroxiredoxin 3 (human). In words: native MS; 20 uM protein (monomer) in 100 mM ammonium acetate, pH 8.0; trap collision energy 20 V; step: chains to the dodecameric ring.
Experiment [7] shares this target. In words: AUC; sedimentation velocity, 20 C, 20 uM protein (monomer) in 100 mM ammonium acetate, pH 4.0; c(s) distribution; step: ring-to-ring stacking.
Experiment [8] has the same target. In words: native MS; protein buffer exchanged from 100 mM ammonium acetate, pH 4.0, back into pH 8.0 before injection; step: stacks of rings back to single rings.
The target is the same in experiment [9]. In words: native MS; 20 uM protein (monomer) buffer exchanged from pH 8.0 into 100 mM ammonium acetate, pH 4.0; spectra from 60 seconds (0 hours) to 3 hours after exchange; step: ring-to-ring stacking.
Experiment [10] has the same target. In words: SEC-SLS; Superdex 200 Increase 10/300 GL with refractive index and right-angle light scattering, 28 C; 20 uM protein in 100 mM ammonium acetate, pH 8.0; step: chains to the dodecameric ring.

By stoichiometry N is commonly meant a count of units in the complex or per binding partner. On to “His6-tagged human peroxiredoxin 3 (natural protein)”, for which the stoichiometry N in experiment [1] and in experiment [5] was 12 each time. Further, the rings in a stack in [2] was 2 rings and 4 rings; in experiment [3], 1 rings; in experiment [4] it was 2 to 3 rings.

Turning to “cleaved human peroxiredoxin 3 (natural protein)”, the stoichiometry N in experiment [6] and in experiment [10] was 12 each time. The substance also returned a rings in a stack (main population) in experiment [7] of 34 rings. Further, the rings in a stack in [8] was 1 rings and 2 rings; in experiment [9] it was 6 rings. In experiment [9], this substance had a rings in the most populated stack of 3 rings.
